Measured values from PMC11860134, “PET Imaging of CD206 Macrophages in Bleomycin-Induced Lung Injury Mouse Model” (Pharmaceutics, 2025).

Assays:
[1] = system: collagen I and III fibers; test: Picro Sirius Red (PSR) staining of lung sections, ImageJ quantification; type: in vivo, mouse; details: lungs of BLM cohort given the tracer
Procedure: Following PET/CT imaging, lungs from all cohorts (bleomycin-induced lung injury model administered with linear or cyclic [^68Ga]Ga-RP832c, healthy mice administered with linear or cyclic [^68Ga]Ga-RP832c, and mice not administered bleomycin) were collected and fixed in 10% formalin. After 48 h of fixation, the lungs were transferred to 70% ethanol and after an additional 24 h, samples were sent for preparation of tissue sections. Tissue sections were prepared by the UAB Pathology Core Research Laboratory, Birmingham, AL, USA. Subsequently, tissue sections were stained with CD206 (Mouse MMR/CD206 Antibody (20 µg/mL, Cat: AF2535, R&D, Minneapolis, MN, USA). The secondary antibody was the Rabbit anti-goat IgG (H+L) HRP (1:2000 dilution, Cat no: 81-1620, Invitrogen, Waltham MA, USA). Picro Sirius Red Staining was conducted using a commercial kit (Picro Sirius Red Stain Kit, ab150681, Abcam, Waltham, MA, USA). Collagen was stained in red while muscle fibers and cytoplasm were stained in yellow.
Picro Sirius Red staining was carried out to detect collagens due to pulmonary fibrosis. The kit is intended for use in the histological visualization of collagen I and III fibers. Picro Sirius Red solution was applied to completely cover the tissue section and then the sample was incubated for 60 min. Slides were rinsed twice in acetic acid solution (0.5%). Slides were rinsed in absolute alcohol and dehydrated in 2 changes in absolute alcohol. The mounting media used was Permount™ Mounting Medium, Pittsburgh, PA, USA. CD206-, PSR-, and H&E-stained samples were imaged using EVOS™ M7000 Imaging System (Invitrogen, Waltham, MA, USA). For IHC semi-quantification, all slides were scored under a light microscope according to the degree of staining (0 points negative for staining, 1 point light yellow, 2 points light brown, and 3 points dark brown) and the range of positivity (1 points 0 to 25%, 2 points 26 to 50%, 3 points 51 to 75%, and 4 points 76 to 100%), and the final scores were summed for analysis.

[2] = target: T1, murine CD206 (Recombinant mouse MMR/CD206 protein) (Mus musculus, UniProt Q61830); test: CD206 plate binding assay; details: 1 µg CD206 per well, 2 µg (0.1 µCi) tracer, n = 10
T1 construct: purchased R&D Systems
T1 sequence (Q61830 19-1388 limits assumed): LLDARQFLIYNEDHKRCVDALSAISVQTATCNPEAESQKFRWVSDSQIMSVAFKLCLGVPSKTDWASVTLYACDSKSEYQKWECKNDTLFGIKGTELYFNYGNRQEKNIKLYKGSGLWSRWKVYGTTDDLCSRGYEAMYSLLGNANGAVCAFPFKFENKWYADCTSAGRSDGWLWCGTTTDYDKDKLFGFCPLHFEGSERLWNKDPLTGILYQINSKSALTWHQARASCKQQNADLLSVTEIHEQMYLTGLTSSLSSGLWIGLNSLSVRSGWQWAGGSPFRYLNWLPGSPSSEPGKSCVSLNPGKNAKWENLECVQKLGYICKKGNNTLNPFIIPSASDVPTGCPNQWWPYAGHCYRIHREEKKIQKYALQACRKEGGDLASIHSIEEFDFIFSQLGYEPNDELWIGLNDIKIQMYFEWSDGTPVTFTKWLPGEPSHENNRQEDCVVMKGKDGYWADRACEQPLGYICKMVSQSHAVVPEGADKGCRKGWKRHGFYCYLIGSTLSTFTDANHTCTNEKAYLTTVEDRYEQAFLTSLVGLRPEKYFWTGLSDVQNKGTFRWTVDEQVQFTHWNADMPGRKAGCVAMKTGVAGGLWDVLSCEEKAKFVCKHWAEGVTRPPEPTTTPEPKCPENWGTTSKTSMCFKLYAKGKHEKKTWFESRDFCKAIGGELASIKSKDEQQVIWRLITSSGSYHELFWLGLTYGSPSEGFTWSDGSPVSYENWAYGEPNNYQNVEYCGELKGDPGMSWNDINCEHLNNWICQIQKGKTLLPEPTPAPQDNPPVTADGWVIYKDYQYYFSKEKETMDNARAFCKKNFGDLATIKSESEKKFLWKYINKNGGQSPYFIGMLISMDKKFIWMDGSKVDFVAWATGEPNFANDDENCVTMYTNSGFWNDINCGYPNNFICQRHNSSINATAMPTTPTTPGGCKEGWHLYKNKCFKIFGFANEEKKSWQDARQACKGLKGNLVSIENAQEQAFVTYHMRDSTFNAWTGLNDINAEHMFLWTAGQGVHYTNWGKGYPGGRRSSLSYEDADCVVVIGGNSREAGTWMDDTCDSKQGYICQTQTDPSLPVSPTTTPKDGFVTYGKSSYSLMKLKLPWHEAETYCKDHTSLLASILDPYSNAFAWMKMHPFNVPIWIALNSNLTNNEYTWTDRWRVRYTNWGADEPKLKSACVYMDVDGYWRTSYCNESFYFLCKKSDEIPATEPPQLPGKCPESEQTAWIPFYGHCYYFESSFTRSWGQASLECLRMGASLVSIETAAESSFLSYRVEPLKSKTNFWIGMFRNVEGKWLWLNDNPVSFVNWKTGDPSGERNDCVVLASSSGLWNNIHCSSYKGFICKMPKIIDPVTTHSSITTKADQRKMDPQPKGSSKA
Procedure: The affinity of linear and cyclic RP832c to murine CD206 (Recombinant mouse MMR/CD206 protein, R&D Systems, Minneapolis, MN, USA) protein was tested via plate binding study using blocking and non-blocking groups. 48 h before the experiment 1 µg of CD206 (in 0.1 mL 15 mM Na2CO3, 35 mM NaHCO3) was added to each well of 96-well flat bottom plate. The plate was kept at 4 °C for 48 h. On the day of the study, 5 µg (0.1 mL aqueous solution) of linear or cyclic RP832c was added to each well (n = 10) of each blocking group and was incubated at 37 °C for an hour. Then, 2 µg (0.1 µCi) of [^68Ga]RP832c was added to each well (n = 10 for each group) of both blocking and non-blocking groups. Both groups were incubated at 37 °C for an hour. Wells were rinsed with PBS (pH = 7) three times. Three wells were used as standards. Each well of the blocking and non-blocking groups and the standards were measured via the HIDEX gamma counter (Lablogic, Clair-Mel City, FL, USA). Data were decay corrected, and binding (%) values were calculated according to standards.

In the case of RWKFGGFKWR [cyclic [^68Ga]Ga-RP832c], the “area % values for PSR staining (ImageJ)” value ([1]; 1 week post bleomycin instillation) is reported as 0.86 ± 0.44%, the “area % values for PSR staining (ImageJ)” value ([1]; 2 weeks post bleomycin instillation) is reported as 1.28 ± 1.06% and the “area % values for PSR staining (ImageJ)” value ([1]; 3 weeks post bleomycin instillation) is reported as 1.36 ± 0.75%. The “CD206 plate binding %” value ([2]; blocking: 5 µg linear or cyclic RP832c, 37 °C 1 h before tracer) was 10.36 ± 0.44% and the “CD206 plate binding %” value ([2]; non-blocking, 37 °C 1 h, gamma counter) was 37.60 ± 1.40%.
